# Experimental data reported in patent US20170088632A1 (OMEROS, published 2017).
# Tests used:
# human MASP-2 [1] = biological target: T1, human MASP-2 (human, UniProt O00187 16-686); experiment: cell-based or functional assay
# [2] = biological target: T2, African Green monkey MASP-2 (in African Green monkey serum) (African Green monkey); experiment: cell-based or functional assay
# human MASP-2 [3] = biological target: T1, human MASP-2; experiment: cell-based or functional assay; remark: listed apart in the source
# [4] = biological target: T3, human MASP-2A (catalytically inactive human MASP-2, Ser618 to Ala618) (human, UniProt O00187 16-686); experiment: SPR (Biacore), MASP-2A amine coupled to CM5 chip, scFv monomer in solution
# T3 construct: the ELISA and Biacore methods say only 'MASP-2A', so a tag may have been present; also called huMASP2A; huMASP-2A
# human MASP-2 [5] = biological target: T1, human MASP-2; experiment: cell-based or functional assay; remark: listed apart in the source
# human MASP-2 [6] = biological target: T1, human MASP-2; experiment: cell-based or functional assay; remark: listed apart in the source
# [7] = biological target: T2, African Green monkey MASP-2 (in African …); experiment: cell-based or functional assay; remark: listed apart in the source
# [8] = biological target: rat MASP-2 (in rat serum) (rat, UniProt Q9JJS8 20-685); experiment: cell-based or functional assay
# human MASP-2 [9] = biological target: T1, human MASP-2; experiment: cell-based or functional assay; remark: listed apart in the source
# [10] = biological target: T2, African Green monkey MASP-2 (in African …); experiment: cell-based or functional assay; remark: listed apart in the source
# human MASP-2 [11] = biological target: T1, human MASP-2; experiment: cell-based or functional assay; remark: listed apart in the source
# T1 sequence (O00187 16-686): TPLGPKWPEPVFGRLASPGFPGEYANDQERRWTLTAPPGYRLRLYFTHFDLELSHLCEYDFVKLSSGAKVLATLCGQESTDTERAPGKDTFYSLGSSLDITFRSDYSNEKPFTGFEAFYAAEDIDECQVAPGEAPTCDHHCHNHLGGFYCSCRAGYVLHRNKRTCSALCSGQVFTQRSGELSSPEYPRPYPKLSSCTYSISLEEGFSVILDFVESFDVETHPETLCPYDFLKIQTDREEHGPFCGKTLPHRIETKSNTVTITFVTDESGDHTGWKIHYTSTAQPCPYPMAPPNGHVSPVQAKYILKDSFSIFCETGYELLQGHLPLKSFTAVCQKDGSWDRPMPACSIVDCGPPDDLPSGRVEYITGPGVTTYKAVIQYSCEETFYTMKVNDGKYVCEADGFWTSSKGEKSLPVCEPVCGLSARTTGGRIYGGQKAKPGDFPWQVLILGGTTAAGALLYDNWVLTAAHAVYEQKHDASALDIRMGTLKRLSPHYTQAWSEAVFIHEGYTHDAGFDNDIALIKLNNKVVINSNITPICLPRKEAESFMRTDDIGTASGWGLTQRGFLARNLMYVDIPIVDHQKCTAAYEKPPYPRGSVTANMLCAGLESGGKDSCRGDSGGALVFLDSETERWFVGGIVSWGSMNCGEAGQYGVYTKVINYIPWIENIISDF
# Chain of rat MASP-2 (in rat serum) (Q9JJS8 other isoform, or with tags, fused parts or gaps limits assumed): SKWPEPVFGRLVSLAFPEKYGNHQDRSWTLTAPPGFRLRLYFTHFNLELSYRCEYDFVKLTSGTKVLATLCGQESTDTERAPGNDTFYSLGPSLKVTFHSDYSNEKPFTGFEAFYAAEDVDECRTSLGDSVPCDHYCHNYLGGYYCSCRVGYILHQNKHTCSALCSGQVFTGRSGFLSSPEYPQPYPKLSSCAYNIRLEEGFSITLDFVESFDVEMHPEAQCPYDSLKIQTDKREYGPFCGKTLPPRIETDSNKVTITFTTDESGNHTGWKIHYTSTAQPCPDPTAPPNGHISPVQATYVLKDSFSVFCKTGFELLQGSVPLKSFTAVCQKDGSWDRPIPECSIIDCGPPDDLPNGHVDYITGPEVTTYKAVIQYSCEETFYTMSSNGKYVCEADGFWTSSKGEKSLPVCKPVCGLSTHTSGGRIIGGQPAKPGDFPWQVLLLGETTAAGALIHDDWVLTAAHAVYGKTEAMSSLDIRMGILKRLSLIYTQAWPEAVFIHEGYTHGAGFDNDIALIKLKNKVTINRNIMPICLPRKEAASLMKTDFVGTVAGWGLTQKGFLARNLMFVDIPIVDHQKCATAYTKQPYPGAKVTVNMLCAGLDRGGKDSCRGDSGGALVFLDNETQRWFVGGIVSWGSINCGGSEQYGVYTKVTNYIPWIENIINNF
# T3 sequence (O00187 16-686 S633A): as the sequence (O00187 16-686) above, with S618A counted along it
"Inhibitory activity in Human Serum IC50 (C3b deposition, 0.5% human serum) (human MASP-2 [1]) [nM]","Functional IC50, C3b deposition, non-human primate serum Exp #1 [2] [nM]","Functional IC50, C3b deposition, non-human primate serum Exp #2 [2] [nM]","Functional IC50, C3b deposition, human serum Exp #1 (human MASP-2 [3]) [nM]","Functional IC50, C3b deposition, human serum Exp #2 (human MASP-2 [3]) [nM]","Functional IC50, C3b deposition, human serum Exp #3 (human MASP-2 [3]) [nM]","Functional IC50, C3b deposition, human serum Exp #4 (human MASP-2 [3]) [nM]","C3b deposition assay in 1% human serum, IC50 (human MASP-2 [5]) [nM]","C3 convertase assay using 1% human serum, IC50 (first experiment) (human MASP-2 [6]) [nM]","C3 convertase assay using 1% human serum, IC50 (second experiment) (human MASP-2 [6]) [nM]",African Green Monkey C3 assay IC50 [7] [nM],Binder,also measured
28.9,99.3,77.1,28.9,120,17.3,24.3,,,,,scFv mother clone 9P13 (scFv) scFv: QVQLQQSGPGLVKPSQTLSLTCAISGDSVSSNSAAWNWIRQSPSRGLEWLGRTYYRSKWYNDYAVSVKSRITINPDTSKNQFSLQLNSVTPEDTAVYYCARDPFGVPFDIWGQGTMVTVSSKLSGSASAPKLEEGEFSEARVSYELTQLPSVSVAPGQTARVTCGGNNIRSKNVHWYQQKPGQAPVLVVYDDTDRPSGIPERFSGSNSGNTATLTVSRVEAGDEADYYCQVWDTTTDHVVFGGGTKVTVLAAAGSEQKLISEEDLNSHHHHHH,Kd [4]: 220 nM
,,,,,,,59,33.9,22,,"18L16 mother clone, wild type IgG4 format (antibody, V domains shown) VH: QVTLKESGPVLVKPTETLTLTCTVSGFSLSNARMGVSWIRQPPGKALEWLAHIFSNDEKSYSTSLKSRLTISKDTSKSQVVLTMTNMDPVDTATYYCARMAILTAGGMDVWGQGTTVTVS VL: LTQPPSVSASPGQTASITCSGDKLGDKYVSWYQQKPGRSPVLVIYRDTKRPSGIPERFSGSNYGNTATLTISGTQAVDEADYYCQAWDSGSGVFGGGTKVTVLA","C3 convertase assay using 1% human serum, fold improvement of IC50 (scFv to divalent form), first experiment (human MASP-2 [6]): ~4.7 fold; C3 convertase assay using 1% human serum, fold improvement of IC50 (scFv to divalent form), second experiment (human MASP-2 [6]): ~8.7 fold"
,,,,,,,,,,18,"MoAb #4 (OMS644), 17D20_3521N11 IgG2 (antibody) heavy: QVTLKESGPVLVKPTETLTLTCTVSGFSLSRGKMGVSWIRQPPGKALEWLAHIFSSDEKSYRTSLKSRLTISKDTSKNQVVLTMTNMDPVDTATYYCARIRRGGIDYWGQGTLVTVSSASTKGPSVFPLAPCSRSTSESTAALGCLVKDYFPEPVTVSWNSGALTSGVHTFPAVLQSSGLYSLSSVVTVPSSNFGTQTYTCNVDHKPSNTKVDKTVERKCCVECPPCPAPPVAGPSVFLFPPKPKDTLMISRTPEVTCVVVDVSHEDPEVQFNWYVDGVEVHNAKTKPREEQFNSTFRVVSVLTVVHQDWLNGKEYKCKVSNKGLPAPIEKTISKTKGQPREPQVYTLPPSREEMTKNQVSLTCLVKGFYPSDIAVEWESNGQPENNYKTTPPMLDSDGSFFLYSKLTVDKSRWQQGNVFSCSVMHEALHNHYTQKSLSLSPGK light: QPVLTQPPSLSVSPGQTASITCSGEKLGDKYAYWYQQKPGQSPVLVMYQDKQRPSGIPERFSGSNSGNTATLTISGTQAMDEADYYCQAWDSSTAVFGGGTKLTVLGQPKAAPSVTLFPPSSEELQANKATLVCLISDFYPGAVTVAWKADSSPVKAGVETTTPSKQSNNKYAASSYLSLTPEQWKSHRSYSCQVTHEGSTVEKTVAPTECS",
,,,,,,,,,,14,"MoAb #6 (OMS646), 17D20_3521N11 IgG4 mutant (S228P hinge) (antibody) heavy: not shown light: QPVLTQPPSLSVSPGQTASITCSGEKLGDKYAYWYQQKPGQSPVLVMYQDKQRPSGIPERFSGSNSGNTATLTISGTQAMDEADYYCQAWDSSTAVFGGGTKLTVLGQPKAAPSVTLFPPSSEELQANKATLVCLISDFYPGAVTVAWKADSSPVKAGVETTTPSKQSNNKYAASSYLSLTPEQWKSHRSYSCQVTHEGSTVEKTVAPTECS",Inhibition of Rat C3b IC50 [8]: > 500 nM
6.1,65.6,128,6.1,96.8,52.3,53.5,,160,193,,scFv mother clone 18L16 (scFv) scFv: QVTLKESGPVLVKPTETLTLTCTVSGFSLSNARMGVSWIRQPPGKALEWLAHIFSNDEKSYSTSLKSRLTISKDTSKSQVVLTMTNMDPVDTATYYCARMAILTAGGMDVWGQGTTVTVSSKLSGSASAPKLEEGEFSEARVSYVLTQPPSVSASPGQTASITCSGDKLGDKYVSWYQQKPGRSPVLVIYRDTKRPSGIPERFSGSNYGNTATLTISGTQAVDEADYYCQAWDSGSGVFGGGTKVTVLAAAGSEQKLISEEDLNSHHHHHH,"C3 Assay IC50, non-human primate serum Exp #1 [10]: 65 nM; C3 Assay IC50, non-human primate serum Exp #2 [10]: 154 nM; C3 Assay IC50, non-human primate serum mean [10]: 110 nM; C3 Assay IC50 in dilute serum (1%), human serum Exp #1 (human MASP-2 [11]): 53 nM; C3 Assay IC50 in dilute serum (1%), human serum Exp #2 (human MASP-2 [11]): 52 nM; C3 Assay IC50 in dilute serum (1%), human serum Exp #3 (human MASP-2 [11]): 97 nM; C3 Assay IC50 in dilute serum (1%), human serum mean (human MASP-2 [11]): 67 nM"

# More lines, now with the values behind:
Binder,"Inhibitory activity in Human Serum IC50 (C3b deposition, 0.5% human serum) (human MASP-2 [1]) [nM]","Functional IC50, C3b deposition, non-human primate serum Exp #1 [2] [nM]","Functional IC50, C3b deposition, non-human primate serum Exp #2 [2] [nM]","Functional IC50, C3b deposition, human serum Exp #1 (human MASP-2 [3]) [nM]","Functional IC50, C3b deposition, human serum Exp #2 (human MASP-2 [3]) [nM]","Functional IC50, C3b deposition, human serum Exp #3 (human MASP-2 [3]) [nM]","Functional IC50, C3b deposition, human serum Exp #4 (human MASP-2 [3]) [nM]","C3b deposition assay in 1% human serum, IC50 (human MASP-2 [5]) [nM]","C3 convertase assay using 1% human serum, IC50 (first experiment) (human MASP-2 [6]) [nM]","C3 convertase assay using 1% human serum, IC50 (second experiment) (human MASP-2 [6]) [nM]",African Green Monkey C3 assay IC50 [7] [nM],also measured
scFv mother clone 3F22 (scFv) scFv: QVQLQQSGPGLVKPSQTLSLTCAISGDSVSSNSAAWNWIRQSPSRGLEWLGRTYYRSKWYNDYAVSVKSRITINPDTSKNQFSLQLNSVTPEDTAVYYCARDPFGVPFDIWGQGTMVTVSSKLSGSASAPKLEEGEFSEARVSYVLTQPPSVSVAPGQTARVTCGGNNIRSKNVHWYQQKPGQAPVLVVYDDTDRPSGIPERFSGSNSGNTATLTVSRVEAGDEADYYCQVWDTTTDHVVFGGGTKLTVLAAAGSEQKLISEEDLNSHHHHHH,20.6,114,173,20.6,36.7,41.4,68.8,,,,,
"MoAb #5 (OMS645), 17D20_3521N11 IgG4 (antibody) heavy: not shown light: QPVLTQPPSLSVSPGQTASITCSGEKLGDKYAYWYQQKPGQSPVLVMYQDKQRPSGIPERFSGSNSGNTATLTISGTQAMDEADYYCQAWDSSTAVFGGGTKLTVLGQPKAAPSVTLFPPSSEELQANKATLVCLISDFYPGAVTVAWKADSSPVKAGVETTTPSKQSNNKYAASSYLSLTPEQWKSHRSYSCQVTHEGSTVEKTVAPTECS",,,,,,,,,,,16,Inhibition of Rat C3b IC50 [8]: 500 nM
"17N16 mother clone, wild type IgG4 format (antibody, V domains shown) VH: QVQLQQSGPGLVKPSQTLSLTCAISGDSVSSTSAAWNWIRQSPSRGLEWLGRTYYRSKWYNDYAVSVKSRITINPDTSKNQFSLQLNSVTPEDTAVYYCARDPFGVPFDIWGQGTMVTVSS VL: SYVLTQPPSVSVAPGQTARITCGGNNIGSKNVHWYQQKPGQAPVLVVYDDSDRPSGIPERFSGSNSGNTATLTVSRVEAGDEADYYCQVWDTTTDHVVFGGGTKLTVL",,,,,,,,~20,5.45,3.09,,"C3b deposition assay in 90% NHS, IC50 (human MASP-2 [9]): 15 nM"
"17D20 mother clone, wild type IgG4 format (antibody, V domains shown) VH: QVTLKESGPVLVKPTETLTLTCTVSGFSLSRGKMGVSWIRQPPGKALEWLAHIFSSDEKSYRTSLKSRLTISKDTSKNQVVLTMTNMDPVDTATYYCARIRAGGIDYWGQGTLVTVSS VL: QPVLTQPPSVSVSPGQTASITCSGDKLGDKFAYWYQQKPGHSPVLVIYQDNKRPSGIPGRFSGSNSGNTATLTISGTQAMDEADYYCQAWDSSTAVFGTGTKVTVLA",,,,,,,,22,7.39,10.3,,"C4b deposition in 90% human serum, IC50 relative to the C3b deposition assay (human MASP-2 [9]): ~3 fold"
